Measured values taken from patent US20250377350A1.

Target: NY-ESO-1 157-165 peptide … presented on HLA-A*0201 (human)
Assay: cell-based or functional assay

mRuby2 (STAT5-mRuby2 reporter) expression in peptide-pulsed ACDC-HLA cells after co-culture with TnT-TCR1G4 cells: 29%
mRuby2+ cells of the monoclonal ACDC-HLA (A*0201) line (Clone 3, …-pulsed) after co-culture with TnT-TCR1G4 cells: 46.7%
Substance: TCR1G4 (specific for the NY-ESO-1 157-165 … antigen), displayed on TnT cells
